The labels stand for the following.
B1: CPEB3 Ribozyme (parent)
chain: GGGGGCCACAGCAGAAGCGUUCACGUCGCGGCCCCUGUCAGAUUCUGGUGAAUCUGCGAAUUCUGCUGU

In the data set the parent is B1. In words: self-cleavage, relative activity (ratio to wild type); higher = more cleavage; co-transcriptional.
As to GGGGGCCACAGUAGAAGCGUUCACGUCGCGACCCCUGUCAGAUUCUGGUGAAUCUGCGAAUUCUGCUGU [C12U G31A], the self-cleavage worked out at 0.905.

For the variant GGGGGCCACAGUAGAAGCCUUCACGUCGCGGCCCCUGUCAGAUUCUGGUGAAUCUGCGAAUUCUGCUGU [C12U G19C], the self-cleavage was found to be 0.154.

As to GGGGGCCACAGUAGAAGCAUUCACGUCGCGGCCCCUGUCAGAUUCUGGUGAAUCUGCGAAUUCUGCUGU [C12U G19A], the self-cleavage came out at 0.12.

As to GGGGGCCACAGUAGAAGCGUUCACGUCGCGGCCCCUGUCAGAUUCUGGUGAAUCUACGAAUUCUGCUGU [C12U G56A], the self-cleavage stood at 0.844.

With GGGGGCCACAGUAGAAGCGUUCACGUCGCGGCCCCUGUCAGAUUCUCGUGAAUCUGCGAAUUCUGCUGU [C12U G47C], the self-cleavage was found to be 1.03.

On to GGGGGCCACAGUAGAAGCGUUCACGUCGCGGCCCCUGUCAGAUUCUAGUGAAUCUGCGAAUUCUGCUGU [C12U G47A], for which the self-cleavage was 1.03.

For the variant GGGGGCCACAGUAGAAGCGUUCACGUCGCGGCCCCUGUCAGAUUCUUGUGAAUCUGCGAAUUCUGCUGU [C12U G47U], the self-cleavage was 0.998.

Regarding GGGGGCCACAGUAGAAGCGUUCACGUCGCGGCCCCUGUCAGAUUCUGGUGAAACUGCGAAUUCUGCUGU [C12U U53A], the self-cleavage worked out at 0.909.

As for GGGGGCCACAGUAGAAGCGUUCACGUCGCGGCCCCUGUCAGAUUCUGGCGAAUCUGCGAAUUCUGCUGU [C12U U49C], the self-cleavage is 0.971.

For GGGGGCCACAGUAGAAGCGUUCACGUCGCGGCCCCUGUCAGAUUCUGGGGAAUCUGCGAAUUCUGCUGU [C12U U49G], the self-cleavage came out at 1.

Turning to GGGGGCCACAGUAGAAGCGUUCACGUCGCGGCCCCUGUCAGAUUCUGGUGAAUCUGCGAGUUCUGCUGU [C12U A60G], the self-cleavage worked out at 0.716.

For GGGGGCCACAGUAGAAGCGUUCACGUCGCGGCCCCUAUCAGAUUCUGGUGAAUCUGCGAAUUCUGCUGU [C12U G37A], the self-cleavage was 0.302.

Consider GGGGGCCACAGUAGAAGCGUUCACGUCGCGGCCCCUCUCAGAUUCUGGUGAAUCUGCGAAUUCUGCUGU [C12U G37C], for which the self-cleavage stood at 0.241.

Consider GGGGGCCACAGUAGAAGCGUUCACGUCGCGGCCCCUUUCAGAUUCUGGUGAAUCUGCGAAUUCUGCUGU [C12U G37U], for which the self-cleavage worked out at 0.222.

On to GGGGGCCACAGUAGAAGCGUUCACGUCGCGGCCCCGGUCAGAUUCUGGUGAAUCUGCGAAUUCUGCUGU [C12U U36G], for which the self-cleavage stood at 0.193.

Consider GGGGGCCACAGUAGAAGCGUUCACGUCGCGGCCCCAGUCAGAUUCUGGUGAAUCUGCGAAUUCUGCUGU [C12U U36A], for which the self-cleavage stood at 0.231.

Take GGGGGCCACAGUAGAAGCGUUCACGUCGCGGCCCCUGUCAGAUCCUGGUGAAUCUGCGAAUUCUGCUGU [C12U U44C]: the self-cleavage was 0.906.

Consider GGGGGCCACAGUAGAAGCGUUCACGUCGCGGCCCCUGUCAGAUUCUGGUGAAUCUGCGAAUUCUGAUGU [C12U C66A], for which the self-cleavage came to 0.571.

Take GGGGGCCACAGUAGAAGCGUUCACGUCGCGGCCCCUGUUAGAUUCUGGUGAAUCUGCGAAUUCUGCUGU [C12U C39U]: the self-cleavage turned out to be 0.854.

With GGGGGCCACAGUAGAAGCGUUCACGUCGCGGCCCCUGUGAGAUUCUGGUGAAUCUGCGAAUUCUGCUGU [C12U C39G], the self-cleavage was 0.928.

For the variant GGGGGCCACAGUAGAAUCGUUCACGUCGCGGCCCCUGUCAGAUUCUGGUGAAUCUGCGAAUUCUGCUGU [C12U G17U], the self-cleavage was found to be 0.321.

Regarding GGGGGCCACAGUAGAAACGUUCACGUCGCGGCCCCUGUCAGAUUCUGGUGAAUCUGCGAAUUCUGCUGU [C12U G17A], the self-cleavage worked out at 0.281.

In the case of GGGGGCCACAGUAGAACCGUUCACGUCGCGGCCCCUGUCAGAUUCUGGUGAAUCUGCGAAUUCUGCUGU [C12U G17C], the self-cleavage was 0.138.

As for GGGGGCCACAGUAGAAGCGUUCACGUCGCGGCCCCUGUCAGAGUCUGGUGAAUCUGCGAAUUCUGCUGU [C12U U43G], the self-cleavage was 0.706.

Regarding GGGGGCCACAGUAGAAGCGUUCACGUCGCGGCCCCUGUCAGACUCUGGUGAAUCUGCGAAUUCUGCUGU [C12U U43C], the self-cleavage came out at 0.928.

Regarding GGGGGCCACAGUAGAAGCGUUCACGUCGCGGACCCUGUCAGAUUCUGGUGAAUCUGCGAAUUCUGCUGU [C12U C32A], the self-cleavage worked out at 0.874.

Regarding GGGGGCCACAGUAGAAGCGUUCACGUCGCGGGCCCUGUCAGAUUCUGGUGAAUCUGCGAAUUCUGCUGU [C12U C32G], the self-cleavage was determined as 0.529.

On to GGGGGCCACAGUAGAAGCGUUCACGUCGCGGCCCCUGUCAGAUUCUGGUAAAUCUGCGAAUUCUGCUGU [C12U G50A], for which the self-cleavage was determined as 1.

For the variant GGGGGCCACAGUAGAAGCGUUCACGUCGCGGCCCCUGUCAGAUUCUGGUCAAUCUGCGAAUUCUGCUGU [C12U G50C], the self-cleavage is 0.974.

With GGGGGCCACAGUAGAAGCGUUCACGUCGCGGCCCCUGUCAUAUUCUGGUGAAUCUGCGAAUUCUGCUGU [C12U G41U], the self-cleavage was determined as 0.718.

On to GGGGGCCACAGUAGAAGCGUUCACGUCGCGGCUCCUGUCAGAUUCUGGUGAAUCUGCGAAUUCUGCUGU [C12U C33U], for which the self-cleavage was found to be 0.972.

Consider GGGGGCCACAGUAGAAGCGUUCACGUCGCGGCCCCUGUCAGAUUCUGGUGAAUCUGCGAAUUCUGCUAU [C12U G68A], for which the self-cleavage was determined as 0.997.

With GGGGGCCACAGUAGAAGCGUUCACGUCGCGGCCCCUGUCAGAUUCUGGUGAAUCUGCGAAUUCUGCUUU [C12U G68U], the self-cleavage is 0.995.

As to GGGGGCCACAGUAGAAGCGUUCACGUCGCGGCCCCUGUCAGAUUCUGGUGAAUCUGGGAAUUCUGCUGU [C12U C57G], the self-cleavage is 0.31.

For the variant GGGGGCCACAGUAGAAGCGUUCACGUCGCGGCCCCUGUCAGAUUCUGGUGAAUCUGAGAAUUCUGCUGU [C12U C57A], the self-cleavage turned out to be 0.438.

Consider GGGGGCCACAGUAGAAGCGUUCACGUCGCGGCCCCUGUCAGAUUCUGGUGAAUGUGCGAAUUCUGCUGU [C12U C54G], for which the self-cleavage came out at 0.84.

Consider GGGGGCCACAGUAGAAGCGUUCACGUCGCGGCCCCUGUCAGAUUCUGGUGAAUAUGCGAAUUCUGCUGU [C12U C54A], for which the self-cleavage is 0.812.

As to GGGGGCCACAGUAGAAGCGUUUACGUCGCGGCCCCUGUCAGAUUCUGGUGAAUCUGCGAAUUCUGCUGU [C12U C22U], the self-cleavage is 0.16.

With GGGGGCCACAGUAGAAGCGUUGACGUCGCGGCCCCUGUCAGAUUCUGGUGAAUCUGCGAAUUCUGCUGU [C12U C22G], the self-cleavage worked out at 0.248.

The record behind these values is the RNAGym collection of RNA variant scans (doi:10.7554/elife.80360).
